Columns and labels:
Test in all cases: purified protein
Assay type in all cases: biochemical, uncultured Acetothermia bacterium
Settings in all cases: standard reaction: 25 mM Tris-HCl pH 8, 0.05% Triton X-100, 50 °C
purified protein [1] = substrate: CCCCCCCCCC(=O)Oc1ccc([N+](=O)[O-])cc1
purified protein [2] = substrate: CCCCCCCC(=O)Oc1ccc([N+](=O)[O-])cc1
purified protein [3] = substrate: CCCC(=O)Oc1ccc([N+](=O)[O-])cc1
purified protein [4] = substrate: CC(=O)Oc1ccc([N+](=O)[O-])cc1

B1: EstDZ2 (uncultured Acetothermia bacterium) (protein)
chain: APPFSFQVYTDVVYYDGPDAHPTKHRLDLFVPDGLQDAPVLIFVHGGGWTSGDKNLYAFIGQAFAAQGFATAVINYRLSPQVQHPAHIEDVARAFSWVYKNIARYGGNPEKIFVTGHSAGGHLTALLALDEKYLQAHGLTLAAIKGAIPISGVYDVTPVLALYRTVFGADPDQRWDASPLAHVGPNKPPFLILYAQFDFPGLGLQAQQLFAELRTHNNEATLTEIPNRDHVTIVATIGASNDPTTEEI
notes: predicted signal peptide (aa 2-21) replaced by N-terminal hexa-histidine tag, kept; E. coli BL21(DE3); Ni-NTA; monomer, ~29 kDa; HGGG and GHSAG motifs; primer encodes APPFSF after His tag
Purified protein [1]
  Km: 120 ± 10 µM
  kcat/Km: 7.55e+06 M⁻¹ s⁻¹
Purified protein [2]
  Km: 200 ± 20 µM
  kcat/Km: 1.04e+07 M⁻¹ s⁻¹
Purified protein [3]
  Km: 320 ± 90 µM
  kcat/Km: 1.44e+07 M⁻¹ s⁻¹
Purified protein [4]
  Km: 670 ± 150 µM
  kcat/Km: 1.76e+06 M⁻¹ s⁻¹
